Assay results published in the supplement of paper PMC10201428.
± gives the standard deviation of the averaged measurements.

Tests used:
[1] = system: VchCAST RNA-guided transposition machinery (E. coli BL21(DE3) host, lacZ target); experiment: relative integration efficiency (T-RL orientation) vs wild-type transposon end (log2 (normalized fold change)); transposon end mutated: right end (5 bp flank + 75 bp right end); higher = more efficient transposition
Method in brief: (§1)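 A T7-driven effector plasmid encoding a CRISPR array, tniQ-cas8-cas7-cas6 and tnsA-tnsB-tnsC was co-transformed into E. coli BL21(DE3) together with a pUC57 mini-transposon donor holding barcoded pools of 1549 left-end or 1849 right-end variants. Transformants were plated with 0.1 mM IPTG at 37°C for 18 h. Illumina sequencing of PCR-amplified input plasmids and genomic integration junctions gave barcode abundances, and relative integration efficiency is their output/input fold change, normalised to reference barcodes and log-transformed.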

[2] = system: VchCAST RNA-guided transposition machinery (E. coli BL21(DE3) host, lacZ target); experiment: relative integration efficiency (T-LR orientation) vs wild-type transposon end (log2 (normalized fold change)); transposon end mutated: right end (5 bp flank + 75 bp right end); higher = more efficient transposition
Method in brief: as §1

## ACATTTGTTGATACAACCATAAAATGATAAGTACACCCATAAATTGATAAGTATCACACCCATAAATTGATATGGCCTCTGATCATAGTCAGACCAACATTGCTACGACCCGTATTCGCACCGACAC
[1]
  relative integration efficiency (log2): -0.35 ± 0.029
[2]
  relative integration efficiency (log2): 0.407 ± 0.12

## ACATTTGTTGATACAACCATAAAATGATAATAACACCCATAAAATGATAATTATCACACCCAATTTAACTATAACGCTCTGATCATAGTCAGACCAACATTGCTACGACCCGTATTCGCACCGACAC
[1]
  relative integration efficiency (log2): -0.0962 ± 0.22
[2]
  relative integration efficiency (log2): 3.211 ± 0.011

## ACATTTGTTGATACAACCATAAAATGATAATAACACCCATAAATTGATAATAATCACACCCATAAATTGATATTCCCTCTGATCATAGTCAGACCAACATTGCTACGACCCGTATTCGCACCGACAC
[1]
  relative integration efficiency (log2): -0.389 ± 0.15
[2]
  relative integration efficiency (log2): -0.098 ± 0.26

## ACATTTGTTGATACAACCATAAAATGATAATATCACCCATAAATTGATAATATTCACACCCATAAATTGATATTCGCTCTGATCATAGTCAGACCAACATTGCTACGACCCGTATTCGCACCGACAC
[1]
  relative integration efficiency (log2): -0.471 ± 0.0068
[2]
  relative integration efficiency (log2): -0.639 ± 0.0008

## ACATTTGTTGATACAACCATAAAATGATAATATCACCCATAAATTGATAATTATCACACCCATAAATTGATATTGCCTCTGATCATAGTCAGACCAACATTGCTACGACCCGTATTCGCACCGACAC
[1]
  relative integration efficiency (log2): -0.188 ± 0.066
[2]
  relative integration efficiency (log2): -0.505 ± 0.091

## ACATTTGTTGATACAACCATAAAATGATAATATGTCCCATAAATTGATAATTATCACACCCATAAATTGATATTGCCTCTGATCATAGTCAGACCAACATTGCTACGACCCGTATTCGCACCGACAC
[1]
  relative integration efficiency (log2): -1.29 ± 0.17
[2]
  relative integration efficiency (log2): -0.96 ± 0.27

## ACATTTGTTGATACAACCATAAAATGATAATCACCCATAAATTGATAATTATCACACCCATAAATTGATATTGCCTCTGATCATAGTCAGACCAACATTGCTACGACCCGTATTCGCACCGACACTG
[1]
  relative integration efficiency (log2): -4.33 ± 0.1
[2]
  relative integration efficiency (log2): -1.91 ± 0.79

## ACATTTGTTGATACAACCATAAAATGATAATGACACCCATAAATTGATAATGATCACACCCATAAATTGATATTTCCTCTGATCATAGTCAGACCAACATTGCTACGACCCGTATTCGCACCGACAC
[1]
  relative integration efficiency (log2): -0.238 ± 0.065
[2]
  relative integration efficiency (log2): 0.195 ± 0.093

## ACATTTGTTGATACAACCATAAAATGATAATGCACAAACGCCCGGTCGCCGGCGACACAAACGCCCGGTCGCGGTAAGAGGATCATAGTCAGACCAACATTGCTACGACCCGTATTCGCACCGACAC
[1]
  relative integration efficiency (log2): -2.15 ± 0.043
[2]
  relative integration efficiency (log2): 1.04 ± 0.18

## ACATTTGTTGATACAACCATAAAATGATAATGCACCCCATAAATTGATAATTATCACACCCATAAATTGATATTGCCTCTGATCATAGTCAGACCAACATTGCTACGACCCGTATTCGCACCGACAC
[1]
  relative integration efficiency (log2): -1.24 ± 0.24
[2]
  relative integration efficiency (log2): -0.689 ± 0.18

## ACATTTGTTGATACAACCATAAAATGATAATGCCACCCATAAATTGATAATGCTCACACCCATAAATTGATATTTACTCTGATCATAGTCAGACCAACATTGCTACGACCCGTATTCGCACCGACAC
[1]
  relative integration efficiency (log2): -0.867 ± 0.17
[2]
  relative integration efficiency (log2): -0.0326 ± 0.2

## ACATTTGTTGATACAACCATAAAATGATAATGCCACCCATAAATTGATAATTATCACACCCATAAATTGATATTGCCTCTGATCATAGTCAGACCAACATTGCTACGACCCGTATTCGCACCGACAC
[1]
  relative integration efficiency (log2): -0.625 ± 0.1
[2]
  relative integration efficiency (log2): -0.173 ± 0.33

## ACATTTGTTGATACAACCATAAAATGATAATTAACAAACGCCCGGTCGCCGGCGACACAAACGCCCGGTCGCGGTAAGAGGATCATAGTCAGACCAACATTGCTACGACCCGTATTCGCACCGACAC
[1]
  relative integration efficiency (log2): -2.3 ± 0.29
[2]
  relative integration efficiency (log2): 0.957 ± 0.25

## ACATTTGTTGATACAACCATAAAATGATAATTAACAAACGCCCGGTCGCCGGCTCAACAAACGCCCGGTCGCGGTACTCTGATCATAGTCAGACCAACATTGCTACGACCCGTATTCGCACCGACAC
[1]
  relative integration efficiency (log2): -1.98 ± 0.26
[2]
  relative integration efficiency (log2): 1.12 ± 0.068

## ACATTTGTTGATACAACCATAAAATGATAATTAACAAACGCCCGGTCGCCGGCTCACACCCATAAATTGATATTGCCTCTGATCATAGTCAGACCAACATTGCTACGACCCGTATTCGCACCGACAC
[1]
  relative integration efficiency (log2): -3.28 ± 0.31
[2]
  relative integration efficiency (log2): -0.997 ± 0.22

## ACATTTGTTGATACAACCATAAAATGATAATTAACAACATAAATTGATAATTATCACACCCATAAATTGATATTGCCTCTGATCATAGTCAGACCAACATTGCTACGACCCGTATTCGCACCGACAC
[1]
  relative integration efficiency (log2): -0.394 ± 0.018
[2]
  relative integration efficiency (log2): -0.921 ± 0.31

## ACATTTGTTGATACAACCATAAAATGATAATTAACACCCATAAATTGATAATTATCAACAAACGCCCGGTCGCGGTACTCTGATCATAGTCAGACCAACATTGCTACGACCCGTATTCGCACCGACA
[1]
  relative integration efficiency (log2): -0.721 ± 0.29
[2]
  relative integration efficiency (log2): 1.67 ± 0.2

## ACATTTGTTGATACAACCATAAAATGATAATTAACACCCATAAATTGATAATTATCACACCCATAAATTGATATTGCCTCTGATCATAGTCAGACCAACATTGCTACGACCCGTATTCGCACCGACA
[1]
  relative integration efficiency (log2): -0.572 ± 0.11
[2]
  relative integration efficiency (log2): -0.437 ± 0.21

## ACATTTGTTGATACAACCATAAAATGATAATTAACCCCATAAATTGATAATTATCACACCCATAAATTGATATTGCCTCTGATCATAGTCAGACCAACATTGCTACGACCCGTATTCGCACCGACAC
[1]
  relative integration efficiency (log2): -0.822 ± 0.075
[2]
  relative integration efficiency (log2): -0.881 ± 0.17

## ACATTTGTTGATACAACCATAAAATGATAATTAATAACACCCATAAATTGATAATTATCAACAAACGCCCGGTCGCGGTACTCTGATCATAGTCAGACCAACATTGCTACGACCCGTATTCGCACCG
[1]
  relative integration efficiency (log2): -2.52 ± 0.17
[2]
  relative integration efficiency (log2): 0.892 ± 0.16

## ACATTTGTTGATACAACCATAAAATGATAATTAATAACACCCATAAATTGATAATTATCACACCCATAAATTGATATTGCCTCTGATCATAGTCAGACCAACATTGCTACGACCCGTATTCGCACCG
[1]
  relative integration efficiency (log2): -3.16 ± 0.3
[2]
  relative integration efficiency (log2): 0.728 ± 0.12

## ACATTTGTTGATACAACCATAAAATGATAATTAATAATCACCCATAAATTGATAATTATCAACAAACGCCCGGTCGCGGTACTCTGATCATAGTCAGACCAACATTGCTACGACCCGTATTCGCACC
[1]
  relative integration efficiency (log2): -2.77 ± 0.31
[2]
  relative integration efficiency (log2): 0.619 ± 0.018

## ACATTTGTTGATACAACCATAAAATGATAATTAATAATCACCCATAAATTGATAATTATCACACCCATAAATTGATATTGCCTCTGATCATAGTCAGACCAACATTGCTACGACCCGTATTCGCACC
[1]
  relative integration efficiency (log2): -2.77 ± 0.17
[2]
  relative integration efficiency (log2): 0.894 ± 0.13

## ACATTTGTTGATACAACCATAAAATGATAATTAATAATTACACCCATAAATTGATAATTATCAACAAACGCCCGGTCGCGGTACTCTGATCATAGTCAGACCAACATTGCTACGACCCGTATTCGCA
[1]
  relative integration efficiency (log2): -2.18 ± 0.28
[2]
  relative integration efficiency (log2): 1.37 ± 0.24

## ACATTTGTTGATACAACCATAAAATGATAATTAATAATTACACCCATAAATTGATAATTATCACACCCATAAATTGATATTGCCTCTGATCATAGTCAGACCAACATTGCTACGACCCGTATTCGCA
[1]
  relative integration efficiency (log2): -3.12 ± 0.2
[2]
  relative integration efficiency (log2): 0.0363 ± 0.21

## ACATTTGTTGATACAACCATAAAATGATAATTAATAATTATCACCCATAAATTGATAATTATCAACAAACGCCCGGTCGCGGTACTCTGATCATAGTCAGACCAACATTGCTACGACCCGTATTCGC
[1]
  relative integration efficiency (log2): -3.56 ± 0.2
[2]
  relative integration efficiency (log2): -0.012 ± 0.0046

## ACATTTGTTGATACAACCATAAAATGATAATTAATAATTATCACCCATAAATTGATAATTATCACACCCATAAATTGATATTGCCTCTGATCATAGTCAGACCAACATTGCTACGACCCGTATTCGC
[1]
  relative integration efficiency (log2): -3.32 ± 0.2
[2]
  relative integration efficiency (log2): -0.503 ± 0.38

## ACATTTGTTGATACAACCATAAAATGATAATTAATAATTATTCACCCATAAATTGATAATTATCAACAAACGCCCGGTCGCGGTACTCTGATCATAGTCAGACCAACATTGCTACGACCCGTATTCG
[1]
  relative integration efficiency (log2): -2.63 ± 0.4
[2]
  relative integration efficiency (log2): 0.337 ± 0.11

## ACATTTGTTGATACAACCATAAAATGATAATTAATAATTATTCACCCATAAATTGATAATTATCACACCCATAAATTGATATTGCCTCTGATCATAGTCAGACCAACATTGCTACGACCCGTATTCG
[1]
  relative integration efficiency (log2): -3.976 ± 0.019
[2]
  relative integration efficiency (log2): -1.92 ± 0.46

## ACATTTGTTGATACAACCATAAAATGATAATTAATAATTATTTACACCCATAAATTGATAATTATCAACAAACGCCCGGTCGCGGTACTCTGATCATAGTCAGACCAACATTGCTACGACCCGTATT
[1]
  relative integration efficiency (log2): -2.54 ± 0.21
[2]
  relative integration efficiency (log2): 0.163 ± 0.01

## ACATTTGTTGATACAACCATAAAATGATAATTAATAATTATTTACACCCATAAATTGATAATTATCACACCCATAAATTGATATTGCCTCTGATCATAGTCAGACCAACATTGCTACGACCCGTATT
[1]
  relative integration efficiency (log2): -2.85 ± 0.13
[2]
  relative integration efficiency (log2): -4.57 ± 0.14

## ACATTTGTTGATACAACCATAAAATGATAATTAATAATTATTTATAACACCCATAAATTGATAATTATCAACAAACGCCCGGTCGCGGTACTCTGATCATAGTCAGACCAACATTGCTACGACCCGT
[1]
  relative integration efficiency (log2): -2.63 ± 0.52
[2]
  relative integration efficiency (log2): 0.00268 ± 0.47

## ACATTTGTTGATACAACCATAAAATGATAATTAATAATTATTTATAACACCCATAAATTGATAATTATCACACCCATAAATTGATATTGCCTCTGATCATAGTCAGACCAACATTGCTACGACCCGT
[1]
  relative integration efficiency (log2): -3.19 ± 0.2
[2]
  relative integration efficiency (log2): -0.494 ± 0.28

## ACATTTGTTGATACAACCATAAAATGATAATTAATAATTATTTATAATCACACCCATAAATTGATAATTATCAACAAACGCCCGGTCGCGGTACTCTGATCATAGTCAGACCAACATTGCTACGACC
[1]
  relative integration efficiency (log2): -2.09 ± 0.28
[2]
  relative integration efficiency (log2): 1.25 ± 0.18

## ACATTTGTTGATACAACCATAAAATGATAATTAATAATTATTTATAATCACACCCATAAATTGATAATTATCACACCCATAAATTGATATTGCCTCTGATCATAGTCAGACCAACATTGCTACGACC
[1]
  relative integration efficiency (log2): -3.38 ± 0.096
[2]
  relative integration efficiency (log2): -0.35 ± 0.25
